This note sets out measurements from patent publication US20240207421A1, “NERVE TARGETING PEPTIDES AND METHODS OF USE” (ALUME BIOSCIENCES, INC., priority 2020, published 2024).

The chains are these.
T1: Human Nidogen-2 (Homo sapiens, UniProt Q14112)
T1 construct: purchased Novus NBP2-10365
T1 sequence (Q14112 31-1375): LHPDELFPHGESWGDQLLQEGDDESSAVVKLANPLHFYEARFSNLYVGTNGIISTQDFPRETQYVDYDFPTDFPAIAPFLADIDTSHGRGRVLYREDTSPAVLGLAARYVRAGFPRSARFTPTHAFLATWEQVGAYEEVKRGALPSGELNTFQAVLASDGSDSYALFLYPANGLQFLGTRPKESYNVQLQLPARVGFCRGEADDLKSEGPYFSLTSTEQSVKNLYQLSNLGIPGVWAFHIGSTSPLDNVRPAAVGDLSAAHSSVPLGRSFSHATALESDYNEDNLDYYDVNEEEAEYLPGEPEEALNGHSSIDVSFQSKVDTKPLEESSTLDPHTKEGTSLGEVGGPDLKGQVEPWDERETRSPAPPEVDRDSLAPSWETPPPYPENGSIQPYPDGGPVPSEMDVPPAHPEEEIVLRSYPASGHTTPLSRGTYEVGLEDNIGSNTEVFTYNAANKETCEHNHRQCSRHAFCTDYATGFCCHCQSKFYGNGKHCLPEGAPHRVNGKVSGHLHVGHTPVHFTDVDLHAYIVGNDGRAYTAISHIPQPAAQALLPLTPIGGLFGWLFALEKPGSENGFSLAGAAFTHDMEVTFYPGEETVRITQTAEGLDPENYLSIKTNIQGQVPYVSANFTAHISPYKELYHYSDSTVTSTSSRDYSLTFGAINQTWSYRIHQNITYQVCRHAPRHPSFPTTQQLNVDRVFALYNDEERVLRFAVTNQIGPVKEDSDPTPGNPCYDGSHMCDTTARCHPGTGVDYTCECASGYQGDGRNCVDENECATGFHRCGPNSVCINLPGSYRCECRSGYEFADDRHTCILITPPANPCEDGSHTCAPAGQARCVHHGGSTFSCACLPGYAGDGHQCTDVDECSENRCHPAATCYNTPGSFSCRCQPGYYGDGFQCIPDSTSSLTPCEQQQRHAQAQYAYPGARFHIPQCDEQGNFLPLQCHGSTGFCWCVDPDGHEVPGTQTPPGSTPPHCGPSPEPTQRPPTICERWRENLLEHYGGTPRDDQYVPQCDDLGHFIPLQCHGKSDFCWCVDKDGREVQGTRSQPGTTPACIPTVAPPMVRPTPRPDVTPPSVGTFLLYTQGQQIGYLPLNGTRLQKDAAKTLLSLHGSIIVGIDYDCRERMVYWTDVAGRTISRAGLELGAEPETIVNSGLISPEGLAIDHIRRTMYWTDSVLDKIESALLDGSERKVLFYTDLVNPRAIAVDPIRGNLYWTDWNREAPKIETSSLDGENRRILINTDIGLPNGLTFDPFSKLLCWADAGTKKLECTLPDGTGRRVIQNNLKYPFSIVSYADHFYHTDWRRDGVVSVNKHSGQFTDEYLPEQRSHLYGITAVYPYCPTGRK

B1: LPMRILT (peptide)
peptide: LPMRILT
B2: EHGYYKV (peptide)
peptide: EHGYYKV

For the first assay, the target named is T2, Human Myelin Basic Protein (Homo sapiens, UniProt P02686). Briefly: phage display, NGS count.
T2 sequence (P02686 135-304 limits assumed): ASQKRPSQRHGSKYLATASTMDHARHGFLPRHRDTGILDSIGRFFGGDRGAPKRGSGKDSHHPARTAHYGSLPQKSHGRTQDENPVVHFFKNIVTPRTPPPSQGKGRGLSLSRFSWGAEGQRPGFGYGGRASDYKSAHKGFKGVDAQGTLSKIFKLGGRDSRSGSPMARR
Settings: not given
Regarding B1, the Count is 16. On the same count and under the same terms, with B2 the figure was 17.

The next assay concerns the target Human Nidogen-2 (human) (UniProt Q14112). Briefly: phage display R3, NGS count.
Settings: not given
The molecule GYWRNAL (peptide) returned a Count of 11.

Regarding KAIHPMRG (peptide), the Count is 11.

The target of a further assay is T2, Human Myelin Basic Protein. Briefly: phage display R3, NGS count.
Settings: not given
With B1, the Count came to 16. The same measure, in the same setting: with B2 the figure was 16.

Another assay deals with T1, Human Nidogen-2. Briefly: Phage display library screening (Example 1, Power BI analysis), binding to Human Nidogen-2. To be noted: R3 Nidogen-2, NextGen sequencing count of phage sequences distinct for this target. An excerpt: Phage display library screens were used to identify peptides that bind to target proteins that are expressed in human nerves and could therefore be useful for systemic in-vivo labeling of nerves during fluorescence assisted surgery. Specifically, m13 phage libraries expressing 7 or 12 random amino acid peptides, or a cyclic peptide CX7C, on the N-terminus of the minor coat protein pIII (New England Biolabs) were processed through multiple rounds of selection for binding to target proteins expressed in peripheral nerve (Table 1).
The library was processed through up to 4 binding and wash cycles. For selection, phage libraries were incubated for up to 24 hours at 4° C. in 96 well plates that had been coated with one of the target proteins. Plates were then washed with PBS and phage were eluted using 0.2M glycine pH 2.0. Phage supernatants where then neutralized with Tris pH 9.0 prior to plating on TG1 bacteria and LB agar plates. Colonies were counted to determine titer followed by DNA preparation of pools of phage and NextGen sequencing. After rounds of selection, phage were pooled and amplified for iterative selection. Phage that were bound at each round were sequenced. NextGen sequencing of pools after 2, 3 and 4 rounds of selection was used to isolate candidate sequences that were analyzed further to identify those that specifically bound each unique target protein.
DNA sequences were trimmed of all vector amino acids and imported as a peptide dataset into Power BI. Power BI was used to identify phage display sequences for specific columns (corresponding to each target protein) in order to identify sequences that were distinct for each protein target. The Power BI code evaluated each individual sequence for each protein target against the sequences present in other protein targets in a test for uniqueness. Using the distinct flag, the Power BI code generated a filtered peptide dataset that excluded any peptide sequence that occur in more than one column which identified a specific protein target. This method therefore identified candidate peptide sequences showing selective binding to an individual target protein. Unique sequences in each column were sorted by individual counts such that the most selected sequences appeared at the top of the column.
Turning to “ACEPRSLANC (R3 Nidogen-2-binding peptide)”, the Count is recorded as 11. The same measure, in the same setting: with GYWRNAL (R3 Nidogen-2-binding peptide) the figure was 11; with “ACGEGEADVC (R3 Nidogen-2-binding peptide)”, 26. The same measure, in the same setting: the result for “ACPENKSKHC (R3 Nidogen-2-binding peptide)” reads 13; that for “ACTVHKWDNC (R3 Nidogen-2-binding peptide)”, 11. Still for that read-out and setting: the result for KAIHPMRG (R3 Nidogen-2-binding peptide) reads 11.
